Experimental findings from patent publication US20070128672A1 (ST VINCENT S HOSPITAL SYDNEY, published 2007) are described below.

The target in the assay is tetanus toxoid (UniProt P04958 2-1315). The assay can be described thus: ELISA, crude Fab supernatant, detected with 9E10. For orientation: An ELISA detects its analyte on a solid surface through an enzyme-linked reagent.
tetanus toxoid, sequence (P04958 2-457 limits assumed, chain 1 of 2): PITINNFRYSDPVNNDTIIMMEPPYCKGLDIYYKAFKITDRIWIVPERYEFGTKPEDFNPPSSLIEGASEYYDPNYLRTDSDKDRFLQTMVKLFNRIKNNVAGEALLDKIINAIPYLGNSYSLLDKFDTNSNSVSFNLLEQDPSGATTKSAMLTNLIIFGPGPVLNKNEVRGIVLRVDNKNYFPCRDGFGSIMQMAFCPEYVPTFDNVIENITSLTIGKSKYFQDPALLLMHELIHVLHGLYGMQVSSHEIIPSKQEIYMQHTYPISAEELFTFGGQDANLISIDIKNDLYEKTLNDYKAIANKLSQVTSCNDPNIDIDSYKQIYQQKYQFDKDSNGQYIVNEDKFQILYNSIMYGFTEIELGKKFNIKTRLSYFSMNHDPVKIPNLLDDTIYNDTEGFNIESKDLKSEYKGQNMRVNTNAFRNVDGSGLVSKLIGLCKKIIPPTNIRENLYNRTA
tetanus toxoid, sequence (P04958 458-1315 limits assumed, chain 2 of 2): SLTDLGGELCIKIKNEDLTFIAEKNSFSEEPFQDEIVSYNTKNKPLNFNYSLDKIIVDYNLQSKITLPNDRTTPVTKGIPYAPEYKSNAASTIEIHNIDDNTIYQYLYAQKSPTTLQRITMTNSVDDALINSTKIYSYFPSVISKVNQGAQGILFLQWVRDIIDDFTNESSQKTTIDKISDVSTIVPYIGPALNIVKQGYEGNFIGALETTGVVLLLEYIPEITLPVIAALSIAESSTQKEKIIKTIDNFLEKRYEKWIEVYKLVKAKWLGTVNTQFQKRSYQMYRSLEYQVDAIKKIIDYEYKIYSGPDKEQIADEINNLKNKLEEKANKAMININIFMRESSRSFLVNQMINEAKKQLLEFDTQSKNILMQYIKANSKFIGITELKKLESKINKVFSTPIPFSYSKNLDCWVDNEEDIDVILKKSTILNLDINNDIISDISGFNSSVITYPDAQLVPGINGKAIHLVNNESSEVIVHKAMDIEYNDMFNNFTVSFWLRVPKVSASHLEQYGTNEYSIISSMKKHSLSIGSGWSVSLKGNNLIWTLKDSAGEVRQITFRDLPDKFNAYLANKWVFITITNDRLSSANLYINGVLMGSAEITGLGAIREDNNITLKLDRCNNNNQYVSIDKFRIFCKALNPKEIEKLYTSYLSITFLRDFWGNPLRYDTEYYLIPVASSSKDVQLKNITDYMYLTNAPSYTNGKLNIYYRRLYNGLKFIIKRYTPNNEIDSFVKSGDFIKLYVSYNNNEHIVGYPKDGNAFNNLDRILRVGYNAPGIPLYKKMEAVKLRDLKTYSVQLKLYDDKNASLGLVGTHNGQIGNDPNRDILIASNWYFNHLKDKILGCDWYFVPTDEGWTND

B1: Fab clone 163.1 (Fab, V domains shown)
VH: VQLLEQSGAEMKRPGASVTISCQASRQTFSGQYIHWVRQAPGQGLEWMGVINPSGGSANYAPSFQGRLSMSRDASTNTVYMKLSSLTSEDTAVYYCLSQALKYWGQGTLVAVSS
VL: AAELTQSPDSLAVSLGERATINCKSNQSVLYNSNSKNYLAWYQQKPGQPPKLLIYWASTRESGVPDRFSGSGSGTDFTLTITSLQAEDVAVYYCQQYFSSPYTFGQGTKLEIK
notes: myc tag on the C terminus of the heavy chain
In the case of B1, the binding result is recorded as “no binding (tested: antigen coated at 1 µg/ml)”.

B2: Fab clone 163.5 (Fab, V domains shown)
VH: VQLLEQSGAEVKRPGASVTISCQASRQDFSGQYIHWVRQAPGQGFEWMGIINPSGGSANYAPKFKGRLTMSRDSSTDTVYMTLTSLTSEDTAVYYCLLQALKHWGQGTLVAVSS
VL: AAELTQSPDSLAVALGERATINCKSSQSVLYSLNNKNYLAWYQQKPGQPPKLLIHWASTRESGVPDRFSGSGSETDFTLTISSLQAEDVAVYYCQQYYTTPYTFGQGTKLEIK
Regarding B2, the binding result was “no binding (tested: antigen coated at 1 µg/ml)”.

B3: Fab clone 163.17 (Fab, V domains shown)
VH: VQLLEQSGAEVKRPGASVTISCRASRQDFSGQYIHWVRQAPGQGFEWMGIINPSGGSANYAPKFKGRLTMSRDSSTETVYMTLTSLTSEDTAVYYCLLQALKHWGQGTLVGPSS
VL: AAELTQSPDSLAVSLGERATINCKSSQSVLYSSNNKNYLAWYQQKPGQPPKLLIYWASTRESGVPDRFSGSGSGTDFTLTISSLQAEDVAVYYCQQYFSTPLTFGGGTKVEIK
notes: Human IgG1 kappa Fab (MCO1 vector, soluble from E. coli HB2151), myc tag on the C terminus of the heavy chain
As for B3, the binding result is on record as “no binding (tested: antigen coated at 1 µg/ml)”.

B4: Fab clone 163.24 (Fab, V domains shown)
VH: VQLLEQSGAEVKRPGASVTISCQASRQNFSGQYIHWVRQAPGQGLEWMGIINPSGGSANYAPRFKGRLSMSRDSSTDTAYLTLTSLTSEDTAVYFCLLQSLKHWGQGTLVAVSS
VL: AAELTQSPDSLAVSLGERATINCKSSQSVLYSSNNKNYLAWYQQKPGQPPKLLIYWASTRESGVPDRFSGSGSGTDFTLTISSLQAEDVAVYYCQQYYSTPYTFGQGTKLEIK
notes: as for B3
Turning to B4, the binding result is reported as “no binding (tested: antigen coated at 1 µg/ml)”.
